Laboratory results reported in patent US20260201020A1, “METHODS FOR EXPRESSION OF FUSION-FREE BOVINE ULTRALONG CDR3 SCAFFOLD” (priority 2022, published 2026).
Read-outs that look alike come from different tables or passages of the source.

How the values were obtained:
[1] = target: SARS-CoV-2 Spike RBD (SARS-CoV-2), P0DTC2
[2] = target: SARS-CoV-2 Spike RBD (SARS-CoV-2), P0DTC2; remark: listed apart in the source
[3] = target: SARS-CoV-2 Spike RBD (SARS-CoV-2), P0DTC2; remark: listed apart in the source
[4] = target: SARS-CoV-2 Spike RBD (SARS-CoV-2), P0DTC2; remark: listed apart in the source
[5] = target: SARS-CoV-2 Spike RBD (SARS-CoV-2), P0DTC2; remark: listed apart in the source
[6] = target: SARS-CoV-2 Spike RBD (SARS-CoV-2), P0DTC2; remark: listed apart in the source
[7] = target: SARS-CoV-2 Spike RBD (SARS-CoV-2), P0DTC2; remark: listed apart in the source

B1: R2G3-His (peptide)
chain: GGGGAMGSEGDKTCPDGYEHTCGCIGGCGCKRSACIGALCCQASLGGWLSDGETYTGGGGSGGGGSHHHHHH
modifications: not checked
Adjusted Binding Rate [1]: 9.51 nm/s | Adjusted Binding Rate [2]: 6.42 nm/s | Adjusted Binding Rate [3]: 7.3 nm/s | Adjusted Binding Rate [4]: 3.39 nm/s | Adjusted Binding Rate [5]: 3.79 nm/s | Adjusted Binding Rate [6]: 5.5 nm/s | Adjusted Binding Rate [7]: 2.12 nm/s
